The values that follow come from patent US20050163769A1 (AbbVie / Abbott, published 2005).

Test [1] concerns the target T1, recombinant soluble recombinant human α5β1 integrin-Fc fusion protein (human, UniProt P08648 42-995; P05556 21-728, limits assumed).
T1 construct: Coated on ELISA plates at 1.0 µg/ml; The construct's limits and the Fc are not described; not shown: Fc part
As to the kind of experiment: competition ELISA on coated α5β1 integrin-Fc; competitor: biotinylated IIA1. How it is done: (§1) Wells of 96-well ELISA plates (Nunc-Immuno MaxiSorp plate, NalgeNunc, Naperville, Ill.) were coated with 100 μl of 1.0 μg/ml recombinant soluble recombinant human α5β1 integrin-Fc fusion protein in 0.2 M sodium carbonate-bicarbonate buffer (pH 9.4) overnight at 4° C. After washing with Wash Buffer (PBS containing 0.1% Tween 20), wells were blocked with 200 μl of Superblock Blocking Buffer (Pierce) for 30 min and then washed with Wash Buffer. A mixture of biotinylated murine IIA1 (0.1 μg/test) and competitor antibody (duplicates of serial 3-fold dilutions of competitior antibodies starting at 5 mg/ml) in ELISA Buffer (PBS containing 1% BSA and 0.1% Tween 20) was applied to ELISA plates in a final volume of 100 μl per well. ELISA plates were incubated for 1 hr at room temperature and the wells were washed with Wash Buffer. Then, […] of 1/1,000-diluted HRP-conjugated streptavidin (Pierce, Rockford, Ill.) in ELISA Buffer was applied to each well. After incubating for 0.5 hr at room temperature and washing with Wash Buffer, 100 μl of TMB substrate was added to each well. Absorbance was read at 450 nm using a VERSAmax microplate reader (Molecular Devices, Menlo Park, Calif.). Final competitor concentration in the reaction was plotted versus absorbance at 450 nm.
On the technique in general: ELISA stands for enzyme-linked immunosorbent assay.

In test [2] the target is T1, recombinant soluble recombinant human …. The experiment in a line: competition ELISA: plate coated with human α5β1 integrin-Fc, unlabelled antibody titrated against biotinylated murine IIA1, streptavidin-HRP, O.D. 450. Here is the method:
as §1

Test [3] addresses T2, AAB1/B2Fc.
T2 construct: Analyte in the BIAcore experiment
The experiment in a line: SPR (BIAcore), antibody immobilized by amine coupling, AAB1/B2Fc as analyte, 24° C. Here is the method:
(§2) Affinities between AAB1/B2Fc and IIA1, M200 or F200 were analyzed using BIAcore 3000 and 2000 (BIAcore, Sweden). IIA1, M200 or F200 was immobilized on the Pioneer F 1 chip using standard amine coupling kit (BIAcore). Surface plasmon resonance was measured at a flow rate of 50 ul/min at 24° C. Injection of AAB1/B2Fc (association phase) occurs over 180 seconds. Dissociation was subsequently monitored over 3 hours. Kinetics of binding were calculated from data acquired at five different concentrations of analyte (320 nM, 160 nM, 80 nM, 40 nM, 20 nM), using the BIAevaluation program. Double-referencing was applied to eliminate responses from reference surface and buffer only control. KD was obtained by simultaneously fitting the association and dissociation phases of the sensorgram from the analyte concentration series.
A general note: SPR reads the build-up and loss of mass on a sensor chip optically.

The target of test [4] is T2, AAB1/B2Fc. The experiment in a line: SPR (BIAcore), Fab immobilized by amine coupling, AAB1/B2Fc as analyte, 24° C. How it is done: as §2

T1 sequence (P08648 42-995 limits assumed, chain 1 of 2): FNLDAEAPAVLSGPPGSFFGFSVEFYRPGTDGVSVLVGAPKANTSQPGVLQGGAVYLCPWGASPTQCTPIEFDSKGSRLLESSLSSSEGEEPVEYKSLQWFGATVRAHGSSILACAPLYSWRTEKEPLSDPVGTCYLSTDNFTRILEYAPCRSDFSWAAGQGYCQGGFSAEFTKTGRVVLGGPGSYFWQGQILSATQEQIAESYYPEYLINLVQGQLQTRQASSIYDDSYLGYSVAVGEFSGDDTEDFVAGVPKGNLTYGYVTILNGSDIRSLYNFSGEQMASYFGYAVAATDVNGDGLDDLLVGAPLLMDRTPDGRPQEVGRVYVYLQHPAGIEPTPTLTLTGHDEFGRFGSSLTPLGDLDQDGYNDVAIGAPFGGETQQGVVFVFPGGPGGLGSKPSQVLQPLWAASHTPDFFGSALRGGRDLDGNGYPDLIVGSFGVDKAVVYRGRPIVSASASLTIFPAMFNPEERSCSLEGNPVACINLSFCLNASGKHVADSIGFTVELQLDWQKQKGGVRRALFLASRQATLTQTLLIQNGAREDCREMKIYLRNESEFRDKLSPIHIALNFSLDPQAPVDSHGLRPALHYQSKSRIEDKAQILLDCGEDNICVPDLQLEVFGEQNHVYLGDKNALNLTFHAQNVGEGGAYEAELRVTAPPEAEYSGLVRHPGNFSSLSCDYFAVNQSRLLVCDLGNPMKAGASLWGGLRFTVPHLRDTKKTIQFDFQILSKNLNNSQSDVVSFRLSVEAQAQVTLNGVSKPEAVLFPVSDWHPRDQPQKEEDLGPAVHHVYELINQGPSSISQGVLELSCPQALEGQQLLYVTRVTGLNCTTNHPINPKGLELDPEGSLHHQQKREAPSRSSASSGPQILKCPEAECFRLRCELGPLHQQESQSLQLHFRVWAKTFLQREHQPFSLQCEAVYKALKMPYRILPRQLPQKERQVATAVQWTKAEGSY
T1 sequence (P05556 21-728 limits assumed, chain 2 of 2): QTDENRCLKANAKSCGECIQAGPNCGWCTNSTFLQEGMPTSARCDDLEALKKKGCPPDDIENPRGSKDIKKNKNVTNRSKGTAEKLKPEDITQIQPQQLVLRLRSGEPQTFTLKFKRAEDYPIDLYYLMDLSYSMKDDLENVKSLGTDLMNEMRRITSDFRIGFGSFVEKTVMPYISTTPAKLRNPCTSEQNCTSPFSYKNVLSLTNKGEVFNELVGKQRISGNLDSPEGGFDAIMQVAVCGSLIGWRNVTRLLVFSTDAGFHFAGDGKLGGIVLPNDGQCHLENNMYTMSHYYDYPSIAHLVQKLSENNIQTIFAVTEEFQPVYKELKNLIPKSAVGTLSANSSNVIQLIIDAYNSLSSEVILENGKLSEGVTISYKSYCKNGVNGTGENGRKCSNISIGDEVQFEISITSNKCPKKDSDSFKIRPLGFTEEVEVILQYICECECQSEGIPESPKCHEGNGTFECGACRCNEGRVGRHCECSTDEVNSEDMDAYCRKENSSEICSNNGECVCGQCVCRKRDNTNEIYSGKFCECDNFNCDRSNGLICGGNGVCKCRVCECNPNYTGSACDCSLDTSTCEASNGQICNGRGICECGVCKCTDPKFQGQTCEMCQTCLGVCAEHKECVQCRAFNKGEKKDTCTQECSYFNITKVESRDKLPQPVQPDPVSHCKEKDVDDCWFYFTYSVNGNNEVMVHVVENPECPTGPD

B1: IIA1, mouse anti-human α5β1 integrin antibody (antibody, V domains shown)
VH: QVQLKESGPGLVAPSQSLSITCTISGFSLTDYGVHWVRQPPGKGLEWLVVIWSDGSSTYNSALKSRMTIRKDNSKSQVFLIMNSLQTDDSAMYYCARHGTYYGMTTTGDALDYWGQGTSVTVSS
VL: QIVLTQSPAIMSASLGERVTMTCTASSSVSSNYLHWYQQKPGSAPNLWIYSTSNLASGVPARFSGSGSGTSYSLTISSMEAEDAATYYCHQYLRSPPTFGGGTKLEIKR
notes: Mouse monoclonal antibody (Pharmingen); also called murine IIA1; M100
The IC50 is the midpoint of a concentration-inhibition curve. For B1, in test [1], the concentration for half-maximal inhibition (IC50) worked out at 79.1 µg/mL. Besides, the “IC50 (read off the curve)” value in test [2] was ~0.02 µg.

B2: M200 chimeric anti-α5β1 integrin antibody (antibody, human IgG4, kappa, V domains shown)
VH: QVQLKESGPGLVAPSQSLSITCTISGFSLTDYGVHWVRQPPGKGLEWLVVIWSDGSSTYNSALKSRMTIRKDNSKSQVFLIMNSLQTDDSAMYYCARHGTYYGMTTTGDALDYWGQGTSVTVSS
VL: QIVLTQSPAIMSASLGERVTMTCTASSSVSSNYLHWYQQKPGSAPNLWIYSTSNLASGVPARFSGSGSGTSYSLTISSMEAEDAATYYCHQYLRSPPTFGGGTKLEIKR
notes: Mouse/human chimeric IgG4/kappa; also called 200-M; 200-4 EOS
In general, Kd refers to a measure of binding affinity in units of concentration. Read a low Kd as a tighter complex. B2: the half-maximal inhibitory concentration (IC50) in test [1] stood at 106 µg/mL. For the same molecule, binding with AAB1/B2Fc [3] was put at a Kd of 367 pM. In addition, the “IC50 (read off the curve)” value in test [2] was ~0.02 µg.

B3: F200, Fab fragment of M200 (Fab, V domains shown)
VH: QVQLKESGPGLVAPSQSLSITCTISGFSLTDYGVHWVRQPPGKGLEWLVVIWSDGSSTYNSALKSRMTIRKDNSKSQVFLIMNSLQTDDSAMYYCARHGTYYGMTTTGDALDYWGQGTSVTVSS
VL: QIVLTQSPAIMSASLGERVTMTCTASSSVSSNYLHWYQQKPGSAPNLWIYSTSNLASGVPARFSGSGSGTSYSLTISSMEAEDAATYYCHQYLRSPPTFGGGTKLEIKR
notes: Made by papain digestion of M200 IgG
The molecule B3 registered a dissociation constant Kd in the test with AAB1/B2Fc [4] of 332 pM.

B4: HuM200, humanized M200 with IgG4 constant region (antibody, V domains shown)
VH: EVQLVESGGGLVQPGGSLRLSCAASGFSLTDYGVHWVRQAPGKGLEWLVVIWSDGSSTYNSALKSRMTISKDNAKNTVYLQMNSLRAEDTAVYYCARHGTYYGMTTTGDALDYWGQGTLVTVSS
VL: EIVLTQSPATLSLSPGERATLSCTASSSVSSNYLHWYQQKPGQAPRLLIYSTSNLASGVPARFSGSGSGTSYTLTISSLEPEDFAVYYCHQYLRSPPTFGGGTKVEIKR
notes: Humanized IgG4; also called HuM200-G4; huM200-G4
With B4, the half-inhibitory concentration (IC50) in test [1] came out at 132 µg/mL. Besides, the “IC50 (read off the curve)” value in test [2] was ~0.02 µg.

B5: HuM200-g2 m3G, humanized M200 with IgG2 constant region (antibody, V domains shown)
VH: EVQLVESGGGLVQPGGSLRLSCAASGFSLTDYGVHWVRQAPGKGLEWLVVIWSDGSSTYNSALKSRMTISKDNAKNTVYLQMNSLRAEDTAVYYCARHGTYYGMTTTGDALDYWGQGTLVTVSS
VL: EIVLTQSPATLSLSPGERATLSCTASSSVSSNYLHWYQQKPGQAPRLLIYSTSNLASGVPARFSGSGSGTSYTLTISSLEPEDFAVYYCHQYLRSPPTFGGGTKVEIK
notes: Same variable domains as HuM200 with a constant region of IgG2
Take B5: in test [1], the 50% inhibitory concentration (IC50) is 103 µg/mL. The “IC50 (read off the curve)” value in test [2] is ~0.02 µg.
